Where “and” joins values, the source holds several entries; their conditions need not be identical. Identical values can stand only once.
Columns and labels:
PqsA (PqsAFL) = biological target: T1, PqsA (PqsAFL) (Pseudomonas aeruginosa, UniProt Q9I4X3); test: anthraniloyl-CoA formation, absorbance at […] nm; type: biochemical; settings: assay with added ArqI
T1 construct: full length, expressed in E. coli T7 Express with 6x-His-CPD tag, tag cut

[1] = biological target: T2, ArqI (PA0709), Aldehyde responsive quorum-sensing Inhibitor (Pseudomonas aeruginosa, UniProt Q9I5L9); test: X-ray crystallography and mass spectrometry of Arg49 adduct; type: binding; settings: covalent; Arg49 in chains C, D, E; hemiaminal or carboxymethylarginine adduct (+58 amu)
T2 construct: full length (98 residues), expressed in E. coli as His6-SUMO fusion, SUMO tag cut, N-terminal SGGG left; hexamer; numbering from Met1

[2] = biological target: T3, PqsA full-length protein, purified (Pseudomonas aeruginosa MPAO1, UniProt Q9I4X3 1-517); test: other fluorescence titration; settings: both partners purified
T3 construct: also called PqsAFL; FL
T3 sequence: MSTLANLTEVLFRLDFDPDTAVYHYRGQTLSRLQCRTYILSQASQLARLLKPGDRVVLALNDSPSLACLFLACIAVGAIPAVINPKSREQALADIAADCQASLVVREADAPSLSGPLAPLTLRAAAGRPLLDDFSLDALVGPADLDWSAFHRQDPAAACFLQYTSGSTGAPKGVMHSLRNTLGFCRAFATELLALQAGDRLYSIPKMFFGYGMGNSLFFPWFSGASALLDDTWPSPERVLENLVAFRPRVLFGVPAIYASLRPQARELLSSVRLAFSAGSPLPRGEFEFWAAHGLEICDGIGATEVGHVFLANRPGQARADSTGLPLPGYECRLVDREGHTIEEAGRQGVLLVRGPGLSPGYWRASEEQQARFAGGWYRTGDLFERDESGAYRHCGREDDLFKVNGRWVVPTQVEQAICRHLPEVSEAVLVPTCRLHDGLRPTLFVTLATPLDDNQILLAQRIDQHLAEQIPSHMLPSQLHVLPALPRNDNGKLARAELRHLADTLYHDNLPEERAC

[3] = biological target: the molecule itself; test: crystal structure; native ArqI, crystals from 50 mM sodium acetate pH 5.0, 12% PEG 4000; C 222_1 cell, 6 subunits in the asymmetric unit, 2.0 Å
[4] = biological target: the molecule itself; test: SEC; HiLoad Superdex 75 16/600 pg or Superose 6 Increase 10/300 GL; 2 mL at 10 mg/mL; 50 mM Tris-Cl pH 8.0, 150 mM NaCl, 1 mM βME (a buffer with 500 mM NaCl, pH 7.4, is also named); RT
crystal structure = biological target: the molecule itself; test: crystal structure

## Nc1ccccc1C(=O)O [anthranilate]
PqsA (PqsAFL); with CoA and ATP
  anthraniloyl-CoA formation, absorbance at 375 nm: purified PqsA protein with CoA, ATP, and anthranilate

## CC(C)(COP(=O)(O)OP(=O)(O)OC[C@H]1O[C@@H](n2cnc3c(N)ncnc32)[C@H](O)[C@@H]1OP(=O)(O)O)[C@@H](O)C(=O)NCCC(=O)NCCS [CoA, coenzyme A]
PqsA (PqsAFL); with anthranilate and ATP
  anthraniloyl-CoA formation, absorbance at 375 nm: purified PqsA protein with CoA, ATP, and anthranilate

## O=CC=O [GO, glyoxal]
[1]
  X-ray crystallography and mass spectrometry of Arg49 adduct: A glyoxal modification was observed on Arg49 for three subunits (chains C, D and E)

B1: Aldehyde responsive quorum-sensing Inhibitor (ArqI), wild type, purified (natural protein)
chain: SGGGMTYHVLVQFDVPSDKREAFAAAGLFDANGSLQNEPGTLRFEVIRDENNRNRFYLDEVYEDEAAFLQHCRNETIARFYELIDSYAFGPLFLFKGYRVEG
notes: also called PA0709; WT ArqI
[2]
  Kd: 43 µM
[3]
  stoichiometry N: 6

B2: ArqI R49Q variant, purified (natural protein)
chain: SGGGMTYHVLVQFDVPSDKREAFAAAGLFDANGSLQNEPGTLRFEVIRDENNQNRFYLDEVYEDEAAFLQHCRNETIARFYELIDSYAFGPLFLFKGYRVEG
notes: source: E. coli, purified as the wild type
[4]
  stoichiometry N: 6 and 2

B3: ArqI R16A variant, purified (natural protein)
chain: SGGGMTYHVLVQFDVPSDKAEAFAAAGLFDANGSLQNEPGTLRFEVIRDENNRNRFYLDEVYEDEAAFLQHCRNETIARFYELIDSYAFGPLFLFKGYRVEG
modifications: in the crystal: βME-modified Cys68
notes: source: E. coli, purified as the wild type (Ni-NTA, ULP1 cleavage, SEC)
Crystal structure
  stoichiometry N: 6
[4]
  stoichiometry N: 2

B4: ArqI P87G variant, purified (natural protein)
chain: SGGGMTYHVLVQFDVPSDKREAFAAAGLFDANGSLQNEPGTLRFEVIRDENNRNRFYLDEVYEDEAAFLQHCRNETIARFYELIDSYAFGGLFLFKGYRVEG
notes: as for B2
[4]
  stoichiometry N: 2

From paper PMC12274486, “A glyoxal-specific aldehyde signaling axis in Pseudomonas aeruginosa that influences quorum sensing and infection” (Nature Communications, 2025)
